# Test results published in US12331106B2, “Anti-angiopoietin-2 antibodies that induce Tie2 activation” (Institute for Basic Science, priority 2018, dated 2025).
# T1: hAng2 (Homo sapiens, UniProt O15123)
# T1 sequence (O15123 19-496): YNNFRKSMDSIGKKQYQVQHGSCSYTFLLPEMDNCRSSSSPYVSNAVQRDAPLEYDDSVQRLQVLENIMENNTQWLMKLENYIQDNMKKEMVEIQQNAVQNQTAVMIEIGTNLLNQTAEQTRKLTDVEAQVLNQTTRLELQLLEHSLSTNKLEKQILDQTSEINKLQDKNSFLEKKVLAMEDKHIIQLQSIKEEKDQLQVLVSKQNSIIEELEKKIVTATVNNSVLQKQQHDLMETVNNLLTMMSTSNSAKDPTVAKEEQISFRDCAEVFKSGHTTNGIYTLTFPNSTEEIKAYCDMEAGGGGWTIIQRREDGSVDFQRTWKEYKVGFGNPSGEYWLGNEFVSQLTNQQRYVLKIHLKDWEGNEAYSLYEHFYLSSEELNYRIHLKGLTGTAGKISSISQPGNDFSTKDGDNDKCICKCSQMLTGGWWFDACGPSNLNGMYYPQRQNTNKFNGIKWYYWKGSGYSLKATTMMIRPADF
# B1: 2C8H11: humanized anti-Ang2 human IgG1 antibody from mouse 2C8; VH SEQ ID NO: 55, VL SEQ ID NO: 56 (antibody, V domains shown)
# VH: QVQLVQSGAEVKKPGASVKVSCKASGYTFTSYWMHWVRQAPGQGLEWMGMIDPSDSETRLNQKFKDRVTMTRDTSTSTVYMELSSLRSEDTAVYYCARRFYYGSDWYFDVWGQGTLVTVSS
# VL: DIQLTQSPSFLSASVGDRVTITCKASQDVGTAVAWYQQKPGKAPKLLIYWASTRHTGVPSRFSGSGSGTEFTLTISSLQPEDFATYYCQQYSSYPLTFGQGTKVEIK
# modifications: human IgG1 constant regions; VH; VL
# What was measured:
# [1] = test system: choroidal neovascularization (CNV); test: Laser-induced CNV model, subcutaneous injection: CNV inhibition; assay type: in vivo, mice; conditions: 25 mg/kg subcutaneous at 1 day; 8 days after laser photocoagulation
# Protocol: To determine the effect of subcutaneously injected 2C8H11 antibody in CNV inhibition, the subcutaneous administration of 2C8H11 antibody (25 mg/kg) was performed at 1 day after laser photocoagulation. As a control, Fc (25 mg/kg) was administered in a same manner to the mice. Anti-CD31 antibody (1:200, Millipore®) was used for the detection of endothelial cells of CNV, and CD31+CNV volumes of the RPE-choroid-sclera flat mounts were calculated using the MATLAB® Image Processing Toolbox™(Math Works) at 8 days after laser photocoagulation (FIG. 16A).
# [2] = test system: CD31+ endothelial cells of CNV; test: Co-localization of subcutaneously injected antibody with CD31 in endothelial cells of CNV; assay type: in vivo, mice; conditions: 25 mg/kg subcutaneous at 1 day; 2, 4 and 8 days after laser photocoagulation
# Protocol: To investigate whether subcutaneously injected 2C8H11 can also exert the therapeutic effects on CNV, we firstly evaluated co-localization 2C8H11 antibody and CD31 in endothelial cells of CNV. The subcutaneous administration of 2C8H11 antibody (25 mg/kg) was performed at 1 day after laser photocoagulation. As a control, Fc (25 mg/kg) was administered in the same manner to the mice. The co-localization of 2C8H11 antibody and anti-CD31 antibody (1:200, Millipore®) in endothelial cells of CNV was directly detected by anti-human IgG antibody (1:1000, Jackson ImmunoResearch Laboratories) at 2, 4, and 8 days after laser photocoagulation (FIG. 15A).
# [3] = test system: downstream signaling of the Tie2 receptor (Akt phosphorylation) in HUVECs; test: Akt phosphorylation in HUVECs by humanized anti-Ang2 antibodies (immunoblot); assay type: cell-based, human; conditions: hAng2 1 μg/ml, 30 min, antibody 0.5 μg/ml, maintained until 50 μg/ml
# Protocol: To investigate whether the humanized anti-Ang2 antibodies induce the downstream signaling of the Tie2 receptor in endothelial cells, HUVECs (LONZA™) were treated with human Ang2 protein together with humanized anti-Ang2 antibody. Then, the level of Akt phosphorylation, the main downstream signaling protein of Tie2 receptor was measured by immunoblotting. To compare the degree of Akt activation, cells were treated with full-length hAng2 (R&D® Systems) alone or antibody alone in the experiment.
# Specifically, HUVEC cells (1×10^5 cells/ml) were cultured in EGM-2 (LONZA™) at 37° C. in 60 mm culture dish. Cells of 90% confluency were incubated with EBM-2 (LONZA™) for 4 hrs. The serum-starved HUVECs were treated with the mixture of anti-Ang2 antibody and hAng2 protein (1 μg/ml, R&D® Systems), and further incubated for 30 min. The cells were washed with cold PBS, treated with lysis buffer, and lysed at 4° C. for 20 min. Then, the cell lysates were prepared by centrifugation at 13000 rpm for 15 min. 5× SDS sample buffer was added to the cell lysate and the mixture was boiled at 95° C. for 5 min. Then, the mixture was subjected to SDS-PAGE and subsequent Western blotting.
# To investigate the phosphorylation of Akt, the membrane was blocked with 5% skim milk-containing TBST for 1 hr at RT, and incubated with anti-phospho-Akt antibody (S473) at 4° C. for about 8 hrs. […]
# [4] = target: T1, hAng2; test: OCTET affinity of humanized anti-Ang2 antibodies against hAng2; assay type: binding; conditions: OCTET, antibody fixed on AR2G biosensor, hAng2 50-0 nM, 1:1 binding model
# Protocol: The affinity of humanized anti-Ang2 antibody against hAng2 was measured using OCTET® system (ForteBio). Specifically, buffer and samples were measured in total 200 μl/well using Black 96-well plates (96 well F-type black plates, Greiner). The biosensor used for affinity measurements was hydrated for 10 min before measurement with AR2G tip (ForteBio OCTET®). After the hydration, humanized anti-Ang2 antibody was diluted in 10 mM sodium acetate, pH 6.0 buffer at a concentration of 10 μg/ml, fixed on AR2G biosensor, and blocked with 1M ethanolamine. The recombinant hAng2 was diluted to 50, 25, 12.5, 6.25, 3.125, and 0 nM with 1× kinetic buffer, and subjected to association for 300 sec and dissociation for 900 sec. For affinity measurement (KD), association rate (K-on) and dissociation rate (K-off) were analyzed by binding curve (global) and fitted to 1:1 binding model using OCTET® data analysis v9.0.0.10 program.
# The affinities of humanized 2C8 antibodies to hAng2 were in Table 15.
molecule,measurement,setting,value
B1,inhibition of CNV formation compared with Fc (CD31+ CNV volume),[1],69.9%
same,detection of administered antibody in CD31+ endothelial cells in CNV area,[2],highly detectable
same,Akt phosphorylation,[3],increased markedly
same,Kdis,[4],1.4e-05 s⁻¹
same,Kon,[4],66000 M⁻¹ s⁻¹
